{"source": "paper doi:10.1101/2025.04.08.647777", "about": "(bioRxiv, 2025)", "binders": {"B1": {"name": "GST-CSN7A (natural protein)", "chain": "MSAEVKVTGQNQEQFLLLAKSAKGAALATLIHQVLEAPGVYVFGELLDMPNVRELAESDFASTFRLLTVFAYGTYADYLAEARNLPPLTEAQKNKLRHLSVVTLAAKVKCIPYAVLLEALALRNVRQLEDLVIEAVYADVLRGSLDQRNQRLEVDYSIGRDIQRQDLSAIARTLQEWCVGCEVVLSGIEEQVSRANQHKEQQLGLKQQIESEVANLKKTIKVTTAAAAAATSQDPEQHLTELREPAPGTNQRQPSKKASKGKGLRGSAKIWSKSN"}}, "target": "MBP-DIC1 (UniProt O14576 1-645)", "sequence (O14576 whole entry)": "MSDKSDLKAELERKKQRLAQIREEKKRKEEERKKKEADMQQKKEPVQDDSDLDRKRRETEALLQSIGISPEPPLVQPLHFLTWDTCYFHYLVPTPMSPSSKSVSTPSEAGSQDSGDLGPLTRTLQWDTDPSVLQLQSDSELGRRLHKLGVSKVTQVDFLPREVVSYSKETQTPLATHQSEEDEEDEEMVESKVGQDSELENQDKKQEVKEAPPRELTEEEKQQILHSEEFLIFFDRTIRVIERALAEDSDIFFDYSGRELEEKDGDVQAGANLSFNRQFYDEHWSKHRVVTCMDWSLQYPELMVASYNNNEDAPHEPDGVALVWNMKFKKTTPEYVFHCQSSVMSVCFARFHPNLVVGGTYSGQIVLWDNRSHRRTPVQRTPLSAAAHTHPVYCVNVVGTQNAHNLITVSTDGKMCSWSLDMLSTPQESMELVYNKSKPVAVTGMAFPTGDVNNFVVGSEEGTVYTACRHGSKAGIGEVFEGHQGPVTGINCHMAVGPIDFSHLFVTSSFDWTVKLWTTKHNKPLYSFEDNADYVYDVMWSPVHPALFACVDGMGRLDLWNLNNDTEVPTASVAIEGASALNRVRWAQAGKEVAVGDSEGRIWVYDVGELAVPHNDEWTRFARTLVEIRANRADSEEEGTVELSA", "assay": "pull-down", "data": [{"binder": "B1", "values": [{"measurement": "binding result", "result": "binds"}]}]}
